The term Kd denotes the constant that tells how readily two partners part at equilibrium. A lower Kd goes with higher affinity.

The target in this data set is hThumb WT (hTERT thumb/CTE domain) (human, UniProt O14746 943-1132). Kind of data set: fluorescence polarization. A general note: Polarisation of emitted light reports the rotation of a fluorescent probe.
Sequence of hThumb WT (hTERT thumb/CTE domain) (O14746 943-1132): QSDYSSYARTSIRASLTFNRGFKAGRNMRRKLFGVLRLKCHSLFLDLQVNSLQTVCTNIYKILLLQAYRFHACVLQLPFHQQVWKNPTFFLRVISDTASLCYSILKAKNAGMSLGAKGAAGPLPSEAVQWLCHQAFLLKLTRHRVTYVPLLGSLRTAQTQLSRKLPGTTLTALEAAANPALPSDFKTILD

B1: hTER CR4/5 (structured_RNA)
RNA: CCCGCCUGGAGGCCGCGGUCCGCCGCGAAGAGUUGGGCUCUGUCAGCCGCGGG
Molecule B1 had a Kd of roughly 400 nM.

Source of the values: paper PMC4598299.
